Data reported in IntAct's records for PubMed 20126263.

B1: TP53-binding protein 1 (Mus musculus), P70399-1 (parent)
chain: MPGEQMDPTGSQLDSDFSQQDTPCLIIEDSQPESQVLEEDAGSHFSVLSRHLPNLQMHKENPVLDIVSNPEQSAVEQGDSNSSFNEHLKEKKASDPVESSHLGTSGSISQVIERLPQPNRTSSALAVTVEAASLPEEEKEEEELEEEKEGVGANAPGADSLAAEDSASSQLGFGVLELSQSQDVEEHTVPYDVNQEHLQLVTTNSGSSPLSDVDASTAIKCEEQPTEDIAMIEQPSKDIPVTVQPGKGIHVVEEQNLPLVRSEDRPSSPQVSVAAVETKEQVPARELLEEGPQVQPSSEPEVSSTQEDLFDQSSKTASDGCSTPSREEGGCSPVSTPATTLQLLQLSGQKPLVQESLSTNSSDLVAPSPDAFRSTPFIVPSSPTEQGGRKDEPMDMSVIPVGGEPFQKLHDDEAMETEKPLLPSQPAVSPQASTPVSRSTPVFTPGSLPIPSQPEFSHDIFIPSPSLEEPSDDVKKGGGLHSSSLTVECSKTSESEPKNFTDDLGLSMTGDSCKLMLSTSEYSQSSKMESLGSPRTEEDRENTQIDDTEPLSPVSNSKLPADSENVLVTPSQDDQVEMSQNVDKAKEDETEDRGDCKGREDAVAEDVCIDLTCDSGSQAVPSPATRSEALSSVLDQEEAMDTKEHHPEEGFSGSEVEEVPETPCGSHREEPKEEPMESIPLHLSLTETQSEALCLQKEAPKEECPEAMEVETSVISIDSPQKLQVLDQELEHKDPDTWEEATSEDSSVVIVDVKEPSPRADVSCEPLEEVEKCSDSQSWEGVAPEEEPCAENRLDTPEEKRIECDGDSKAETTEKDAVTEDSPQPPLPSVRDEPVRPDQETQQPQVQEKESPVTVDAEVADDKQLGPEGACQQLEKAPACASQSFCESSSETPFHFTLPKEGDIIPPLTGATPPLIGHLKLEPKRHSTPIGISNYPESTIATSDVTSESMVEINDPLLGNEKGDSESAPEMDGKLSLKMKLVSPETEASEESLQFSLEKPTTAERKNGSTAIAEPVASLQKPVPVFGCIYEAQQEKEAQSEAPPSAPDRANLLHFPSAQEEDKERPDVTPKLRQSEQPVKPVGPVMDDAAPEDSASPVSQQRASQEQRASQEPFSPAEDVMETDLLEGLAANQDRPSKMLMDRPTQSNIGIQTVDHSLCAPETVSAATQTVKSVCEQGTSTAEQNSGKQDATVQTERGSGEKPASAPVDDTESLHSQGEEEFEMPQPPHGHVLHRHMRTIREVRTLVTRVITDVYYVDGTEVERKVTEETEEPIVECQECETEVSPSQTGGSSGDLGDISSFSSKASSSHHTSSGTSLSAIHSSGSSGRGAGPLKGKASGTEAADFALPSSRGGPGKLSPRKGISQTGAPVCEEDGDAGLGIRQGGKAPVTPRGRGRRGRPPSRTTGTRETVVSGPLGVEDISPSMSPDDKSFTRIMPRVPDSTKRTDASSSTLRRSDSPEIPFQAATGSSDGLDSSSSGNSFVGLRVVAKWSSNGYFYSGKITRDVGAGKYKLLFDDGYECDVLGKDILLCDPIPLDTEVTALSEDEYFSAGVVKGHRKESGELYYSIEKEGQRKWYKRMAVILSLEQGNRLREQYGLGPYEAVTPLTKAADISLDNLVEGKRKRRSNISSPVTPTAASSSSTTPTRKATESPRASTGVPSGKRKLPTSEEERSPAKRGRKSATVKPGTVGAAEFVSPCETGDNIGEPSVLEEPRGPLPLNKTLFLGYAFLLTMATTSDKLASRSKLLDGPTGSSEEEEEFLEIPPFNKQYTECQLRAGAGYILEDFNEAQCNTAYQCLLIADQHCRTRKYFLCLASGIPCVSHVWVHDSCHANQLQNYRNYLLPAGYSLEEQRILDWQPRENPFQNLKVLLVSDQQQNFLELWSEILMTGGAASVKQHHSSAHNKDIALGVFDVVVTDPSCPASVLKCAEALQLPVVSQEWVIQCLIVGERIGFKQHPKYKHDYVSH

Variants of: B1
Details: with plk1_human PLK1, P53350
Sequence of plk1_human PLK1, P53350 (P53350 whole entry): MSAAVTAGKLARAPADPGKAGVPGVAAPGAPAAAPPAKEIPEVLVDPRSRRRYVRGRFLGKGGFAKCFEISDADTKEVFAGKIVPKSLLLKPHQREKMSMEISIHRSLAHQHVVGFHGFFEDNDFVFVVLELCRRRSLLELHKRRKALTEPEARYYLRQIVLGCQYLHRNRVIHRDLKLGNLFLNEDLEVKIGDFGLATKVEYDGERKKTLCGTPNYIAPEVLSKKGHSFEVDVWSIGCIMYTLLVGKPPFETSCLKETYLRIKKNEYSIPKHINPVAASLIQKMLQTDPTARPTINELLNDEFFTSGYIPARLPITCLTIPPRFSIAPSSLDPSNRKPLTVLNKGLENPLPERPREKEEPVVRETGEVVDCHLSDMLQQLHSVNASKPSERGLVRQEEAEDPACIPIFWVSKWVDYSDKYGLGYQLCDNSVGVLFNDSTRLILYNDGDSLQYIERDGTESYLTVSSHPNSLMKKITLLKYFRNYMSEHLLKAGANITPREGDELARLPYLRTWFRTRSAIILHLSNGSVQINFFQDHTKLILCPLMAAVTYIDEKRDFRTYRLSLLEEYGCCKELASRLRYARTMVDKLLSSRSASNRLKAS

Row | effect of a mutation on the interaction | Variant
1 | disrupting interaction | S382A
